Data on six molecules can be found in patent US20230220084A1.

Several values for one entry are separate records, joined by “and”; a condition that tells them apart may be missing. Identical values can stand only once.

Test [1] addresses hCLEC12A-His fusion protein (human) (UniProt Q5QGZ9). The experiment in a line: SPR (Biacore) 37 C.
The target of test [2] is human CLEC12A expressed on cells (human) (UniProt Q5QGZ9). The experiment in a line: flow cytometry, hCLEC12A+Ba/F3 cells.
Test [3] concerns the target hCLEC12A-His fusion protein (human) (UniProt Q5QGZ9). The experiment in a line: SPR screening, semi-purified protein.
For test [4] the target is unchanged. The experiment in a line: SPR (Biacore) 37 C, mean of 4.
For test [5], the target named is human CLEC12A expressed on cells (human) (UniProt Q5QGZ9). The experiment in a line: flow cytometry, HL60 cells.
For test [6] the target is unchanged. The experiment in a line: flow cytometry, U937 cells.
For test [7], the target named is hCLEC12A-His fusion protein (human) (UniProt Q5QGZ9). The experiment in a line: SPR 37 C, hybridoma supernatant.
Chain of hCLEC12A-His fusion protein (human) (Q5QGZ9 65-265 limits assumed): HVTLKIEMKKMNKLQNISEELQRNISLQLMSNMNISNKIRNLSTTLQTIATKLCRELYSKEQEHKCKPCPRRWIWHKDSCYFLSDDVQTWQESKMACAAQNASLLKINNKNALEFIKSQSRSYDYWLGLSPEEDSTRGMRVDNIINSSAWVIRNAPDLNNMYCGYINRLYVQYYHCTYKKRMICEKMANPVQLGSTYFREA
In test [8] the target is human CLEC12A expressed on cells (human) (UniProt Q5QGZ9). The experiment in a line: flow cytometry, RMA-hCLEC12A cells.
The target of test [9] is cynomolgus CLEC12A expressed on RMA cells (cynomolgus monkey). The experiment in a line: flow cytometry, RMA-cCLEC12A cells.
Chain of cynomolgus CLEC12A expressed on RMA cells (cynomolgus monkey) (chain, as listed by the source): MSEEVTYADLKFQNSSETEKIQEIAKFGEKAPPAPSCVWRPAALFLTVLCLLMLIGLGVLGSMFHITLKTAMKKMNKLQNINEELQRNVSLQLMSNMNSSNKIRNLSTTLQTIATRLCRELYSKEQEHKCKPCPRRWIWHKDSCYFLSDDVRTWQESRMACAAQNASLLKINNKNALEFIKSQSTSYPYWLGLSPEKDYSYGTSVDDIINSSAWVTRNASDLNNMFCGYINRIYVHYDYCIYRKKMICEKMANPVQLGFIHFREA
For test [10], the target named is De-sialylated hCLEC12A (human) (UniProt Q5QGZ9). The experiment in a line: SPR, analyte de-sialylated hCLEC12A.
Chain of De-sialylated hCLEC12A (human) (Q5QGZ9 65-265 limits assumed): as the sequence (Q5QGZ9 65-265 limits assumed) above
In test [11] the target is hCLEC12A-His fusion protein (human) (UniProt Q5QGZ9). The experiment in a line: SPR, analyte glycosylated hCLEC12A.
Test [12] addresses De-glycosylated hCLEC12A (human) (UniProt Q5QGZ9). The experiment in a line: SPR, analyte de-glycosylated hCLEC12A.
In test [13] the target is human CLEC12A expressed on cells (human) (UniProt Q5QGZ9). The experiment in a line: flow cytometry on RMA-hCLEC12A cells.

Chain of human CLEC12A expressed on cells (human) (Q5QGZ9 whole entry, the tested form may be a part): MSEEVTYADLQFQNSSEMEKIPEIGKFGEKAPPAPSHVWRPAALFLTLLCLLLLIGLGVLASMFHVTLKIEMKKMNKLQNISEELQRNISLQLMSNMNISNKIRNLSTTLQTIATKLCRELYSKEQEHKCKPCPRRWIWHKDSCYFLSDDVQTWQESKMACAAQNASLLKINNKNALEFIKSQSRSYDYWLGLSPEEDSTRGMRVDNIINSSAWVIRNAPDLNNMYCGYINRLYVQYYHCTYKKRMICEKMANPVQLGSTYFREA
Chain of De-glycosylated hCLEC12A (human) (Q5QGZ9 65-265 limits assumed): as the sequence (Q5QGZ9 65-265 limits assumed) above

B1: F3′-1295 (bispecific antibody, part only; not given: Fc and unrelated binding arm, not shown: another chain or arm of the molecule; a dimerising Fc or GST)
scFv: QLQLQESGPGLVKPSETLSLTCTVSGFSLTNYGLHWIRQPPGKCLEWIGVIWSGGKTDYNPSLKSRVTISKDTSKNQFSLKLSSVQAADTAVYYCAKYDYDDSLDYWGQGTLVTVSSGGGGSGGGGSGGGGSGGGGSDIQMTQSPSSLSASVGDRVTITCHASQNINFWLSWYQQKPGKIPKLLIYEASNLHTGVPSRFSGSGSGTRFTLTISSLQPEDIATYYCQQSHSYPLTFGCGTKLEIK
For B1, the Kd in test [1] was 1.43 nM and 1.42 nM and 1.44 nM. In test [2], this molecule registered an EC50 of 26.1 nM and a Max MFI of 48000 MFI. In test [3], the Kd is 2.94 nM, the koff amounted to 0.00153 s⁻¹ and the kon was determined as 520000 M⁻¹ s⁻¹. In addition, in test [4], the dissociation constant Kd is 1.43 nM, the koff was 0.000594 s⁻¹ and the kon was found to be 415000 M⁻¹ s⁻¹.

B2: AB0195 (bispecific antibody, part only; not given: Fc and unrelated binding arm, not shown: another chain or arm of the molecule; a dimerising Fc or GST)
scFv: EVQLVESGGGVVQPGGSLRLSCAASGFTFNAFGMHWVRQAPGKCLEWVAFISSGSTSIYYANTVKGRFTISRDNSKNTLYLQMNSLRAEDTAVYYCARDGYPTGGAMDYWGQGTSVTVSSGGGGSGGGGSGGGGSGGGGSDIKMTQSPSSLSASVGDRVTITCKASQDIYNYLSWFQQKPGKAPKPLIYRANILVSGVPSRFSGSGSGQDYTLTISSLQPEDIATYYCLQFDAFPFTFGCGTKLEIK
With B2, in [2], the concentration for a half-maximal effect (EC50) amounted to 0.6 nM and the Max binding MFI was found to be 10800 MFI. In test [5], this molecule had an EC50 of 0.7 nM and a Max binding MFI of 551 MFI. Further, in [3], the Kd is 1.68 nM, the koff stood at 0.00129 s⁻¹ and the kon was 766000 M⁻¹ s⁻¹.

B3: 15A10 hybridoma supernatant antibody (antibody, from a related filing, V domains shown)
VH: EVQLQESGAELVRSGASIKLSCAASAFNIKDYFIHWVRQRPDQGLEWIGWIDPENDDTEYAPKFQDKATMTADTSSNTAYLQLSSLTSADTAVYYCNALWSRGGYFDYWGQGTTLTVSS
VL: EVLLTQSPAIIAASPGEKVTITCSARSSVSYMSWYQQKPGSSPKIWIYGISKLASGVPARFSGSGSGTYFSFTINNLEAEDVATYYCQQRSYYPFTFGSGTKLEIK
On to B3, for which the Cell Binding MFI turned out to be 83.8 MFI in [6], 372 MFI in test [8] and 167 MFI in test [9]. In test [7], this molecule gave a Kd of 15.8 nM. Further, the off-rate constant (koff) in test [7] was determined as 0.00223 s⁻¹.

B4: 16B08 hybridoma supernatant antibody (antibody, from a related filing, V domains shown)
VH: EVQLQESGPGLVQPSQSLSITCTVSGFSLTNYGLHWVRQSPGKGLEWLGVIWSGGKTDYNTPFKSRLSISKDISKNQVFFKMNSLQPNDTAIYFCAKYDYDDSLDYWGQGTSVTVSS
VL: DIQMNQSPSSLSASLGDTIAITCHASQNINFWLSWYQQKPGNIPKLLIYEASNLHTGVPSRFSGSGSGTRFTLTISSLQPEDIATYYCQQSHSYPLTFGQGTKLEIK
As for B4, the Cell Binding MFI in test [6] was found to be 44.1 MFI; in [8], 819 MFI; in [9] it was 1130 MFI.

B5: Murine F3′-9F11 (bispecific antibody, part only; not given: format, linker, Fc, other arm, V domains shown, not shown: a dimerising Fc or GST)
VH: EVQLQESGGGLVQPGGSRKLSCAASGFTFNSFGMHWVRQAPEKGLEWVAFISSGSTSIYYANTVKGRFTISRDNPKNTLFLQMTSLRSEDTAMYYCARDGYPTGGAMDYWGQGTSVTVSS
VL: DIKMTQSPSSMYASLGERVTITCKASQDIYNYLSWFQLKPGKSPRPLIYRANILVSGVPSKFSGSGSGQDYSLTINSLEYEDLGIYYCLQFDAFPFTFGSGTKLEIK
B5: in test [10], the Kd is 0.62 nM, the koff turned out to be 0.00098 s⁻¹ and the on-rate (kon) was 1.58e+06 M⁻¹ s⁻¹. In [11], this molecule had a Kd of 0.96 nM, a koff of 0.00111 s⁻¹ and a kon of 1.15e+06 M⁻¹ s⁻¹. In test [12], the Kd was found to be 0.34 nM, the koff was found to be 0.000374 s⁻¹ and the kon came to 1.11e+06 M⁻¹ s⁻¹.

B6: F3′-1304 (bispecific antibody, part only; not given: Fc and unrelated binding arm, not shown: another chain or arm of the molecule; a dimerising Fc or GST; small tags and cut ends)
scFv: DIQMTQSPSSLSASVGDRVTITCHASQNINFWLSWYQQKPGKIPKLLIYEASNLHTGVPSRFSGSGSGTRFTLTISSLQPEDIATYYCQQSHSYPLTFGCGTKLEIKGGGGSGGGGSGGGGSGGGGSQLQLQESGPGLVKPSETLSLTCTVSGFSLTNYGLHWIRQPPGKCLEWIGVIWSGGKTDYNPSLKSRVTISKDTSKNQFSLKLSSVQAADTAVYYCAKYDYDDSLDYWGQGTLVTVSS
For B6, in test [3], the Kd came to 2.7 nM, the koff stood at 0.0013 s⁻¹ and the association rate constant (kon) stood at 480000 M⁻¹ s⁻¹. In test [13], this molecule showed an EC50 (read off the curve) of 10 nM.
